Experimental data taken from the nanobody polyreactivity screen of Harvey et al. (2022).

Experiment: yeast display, Sf9 membrane polyspecificity reagent, FACS + sequencing; frameworks hold sequencing errors
Method in brief: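 A nanobody's polyreactivity label depends on the gate it was sorted from. Yeast display cells were stained with 10% biotinylated, detergent-solubilized Sf9 membrane reagent for 1 hour at 4 °C, enriched on streptavidin microbeads and sorted by FACS. The low and high (top ~1%) gates were set on anti-HA fluorescence for expression and streptavidin fluorescence for reagent binding.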

Row | Sequence | polyreactivity (PSR sort gate)
1 | QVQLVETGGGLVQAGGSLRLSCAASGSIFGFYAMGWYRQAPGKERELVAAIDSGDSTNYADSVKGRFTISRDNAKNTVYLQMNSLKPEDTAVYYCYAEAWWYFWFDYWGQGTQVTVSS | low polyreactivity
2 | QVQLVETGGGLVQAGGSLRLSCAASGSIFIWYAMGWYRQAPGKERELVAAIRSGGSTYYADSVKGRFTISRDNAKNTVYFQMNRLKPEDTAVYYCAKVLSWRGNRYNYWGQGTQVTVSS | low polyreactivity
3 | QVQLVETGGGLVQAGGSLRLSCAASGSIFYPNAMGWYRQAPGKERELVAAISSSGGTNYADSVKGRFTISRDNAKNTVYLQMNSLKPEDTAVYYCNARDKVRYRYSRMDYWGQGTQVTVSS | low polyreactivity
4 | QVQLVETGGGLVQAGGSLRLSCAASGSTFHGYAMGWYRQEPGKERELVAAITSGDSTNYADSVKGRFTISRDNAKNTVYLQMNSLKPEDTAVYYCNAEGSSVLTGYWGYPPYWDTYDYWGQGTQVTVSS | low polyreactivity
5 | QVQLVETGGGLVQAGGSLRLSCAASGSTFQLYAMGWYRQAPGKERDFVAAISNGGRTNYADSVKGRFTISRDNAKNTVYLQMTSLKPEDTAVYYCNADQVWWSFDRVLVGYEYWGKGTQVTVSS | low polyreactivity
6 | QVQLVETGGGLVQAGGSLRLSCAASGSTFYAYVMGWYRQAPGKERELVAAITSAGSTYYADSVKGRFTISLDNAKNTVYLQMNSLKPEDTAVYYCAADAYTESAYYKYDYWGQGTQVTVSS | low polyreactivity
7 | QVQLVETGGGLVQAGGSLRLSCAASGSTFYHNAMGWYRQAPGKERELVAAISIGGGRTYYADSVKGRFTISRDNAKNTVYLQMNSLKPEDTAVYYCAAGSPAVYGRGFNYWGQGTQVTVSS | low polyreactivity
8 | QVQLVETGGGLVQAGGSLRLSCAASGSTFYRNTKGCYRQAPGKEREFVAGISDRGTSTYYADSVKGRFTISRDNAKNTVYLQMNSLKPEDTAVYYCNKRSWPAYVHKYDYWGQGTQVTVSS | low polyreactivity
9 | QVQLVETGGGLVQAGGSLRLSCAASGSTVRFNAMGWYRQAPGKERELVAVIRWRGGTTYYADSVKGRFTISRDNAKNTVYLQMNSLKPVDTAVYYCNADYWFSYTWHGSYTVGYWGQGTQVTVSS | high polyreactivity
10 | QVQLVETGGGLVQAGGSLRLSCAASGYILINAMGLYRQAPGKERELVASISWSSGSTYYADSVKGRFTISRDNAKNTVFLQMNSLKPEDTAVYYCAATAWDRWSYRYEYWGQGTQVTVSS | low polyreactivity
11 | QVQLVETGGGLVQAGGSLRLSCAAYGRIFAIYAMGWYRQAPGKDRELVAAISRSGGSTSYADSVKGRFTISRDNAKNTVYLQMNSLKPEDTAVYYCARRITYYQLSRQRYDYWGQGTQVTVSS | high polyreactivity
12 | QVQLVETGGGLVQAGGSLRLSCADSGRIFRYYVMGWYRQAPGKERELVAAISRSGGSTYYADSVKGRFTISRDNAKNTVYLQMNSLKPEETAVYYCAKRVSTYGFSGYDYWGQGTQVTVSS | high polyreactivity
13 | QVQLVETGGGLVQAGGSLRLSCAPSGIIISHYAKGWYRQAPGKETELVAAISSRGGSTYYADSVKGRFTISRDIAKNTVYLQMNSLKPEDTAVYYCATTDPYDSSYYIYYYWGQGTQVTVSS | high polyreactivity
14 | QVQLVETGGGLVQAGGSLRLSCAPSGINFTGYDMGWYRQAPGKERELVAAITSGGSTYYADSVKGRFTISRDNAKNTVYLQMNSLKPEDTAVYYCAARAKLTGYWGQGTQVTVSS | high polyreactivity
15 | QVQLVETGGGLVQAGGSLRLSCDASGRIFGGYAMGWYRKAPGKERELVAAISASGGRTYYADSVKGRFTISRDNAKNTVYLQMNSLKPEDNAVYYCAASFRRTSLRWLGEYWGQGTQVTVSS | high polyreactivity
16 | QVQLVETGGGLVQAGGSLRLSSAASGFTFGTYAMGWYRQAPGKERELVAAITGSGVRTYYADSVKGRFTISRDIAKYTVFLQMNSLKPEDTAVYYCAADYVVPLAFWTFRFDYWGQGTQVTVSS | low polyreactivity
17 | QVQLVETGGGLVQAGGSLSLSCAASGSTSSRYAMGWYRQAPGKEMELVARINWNGGSTYYADSVKGRFTISRDNAKNTVYLQMNSLKPEDTAVYYCAADSFGITYVSYVSIYDFDYWGQGTQLTVSS | low polyreactivity
18 | QVQLVETGGGLVQAGGTLRLSCAASGRIFRRYAMVWYRQAPGKEREFVAAITDGSTYYADSVKGRFTISRDNAKNTVYLQMNSLNPEDPAVYYCATQFGWSYSRRFYYWGQGTQVTVSS | high polyreactivity
19 | QVQLVETGGGLVQAGRSLRLSCAASGSNFRSYARGWYRQAPGKERELVAAITSSSGSTDYADSVKGRFTSSRDNAKNTVYLQMNSLKPEDTAVYYCNAPYWKSRFRAYYHWGQGTQVTVSS | high polyreactivity
20 | QVQLVETGGGLVQAGVSHRLSFASSGSTFVEYVMGWYRQAPGKERELVARITWGGGITYYADSVKVRFTFSRDNAKNTVYLLMNRVNPEDNAVYYCAAGTITYGYGYDYWGQGTQVSVSS | low polyreactivity

Row | Sequence | polyreactivity (PSR sort gate)
21 | QVQLVETGGGLVQAGVSLRISCAASGRTFSVYTMGWYRQAPGKERELVAAIRGRGGSTYYADSVKGRFTISRDNAKNTVYLQMNSLKPEDTAVYYCAARASIFGATFDYWGQGTQVTVSS | high polyreactivity
22 | QVQLVETGGGLVQAGVSLRLSCAASGRIFEVNVMGWYRQAPGKERELVAAITTGGGSTYYADSVKGRFTISRDNAKNTVYLQMNSLKPEDTAVYYCATDYSSYLYDYYTGVGGYDYWGQGTQVTVSS | low polyreactivity
23 | QVQLVETGGGLVQARGSLRLSCAASGRTLPDNAMGWSRQAPGNESELVAAITTSGGSTYYADSVMGRFTISRDNAQNTVYLQLNSLKPEDTAVYYCAADIWQYSLIANYHPYDYWGQGTQVTVSS | low polyreactivity
24 | QVQLVETGGVLVQAGGSLRLSCAASGITFYRYAMGWYRQAPGKERELVATITSGVSTFYADSVKGRFTISRDNAKNTVYLQMKSLKQEDTAVYFCAAESVWNWYYTTAGMDYWGLGTQVTVSS | high polyreactivity
25 | QVQLVETGRGLLQAGGTLLLTCAASGSIYTYAMGWYKQAHGTQRELVAAISRSGGRTYYADSVKGRFTNSRDNAKNTVYLQMNSLKPEDTAVYYCAALLLKDYDYLGQGTQVTVSS | low polyreactivity
26 | QVQLVEYGAALVKAGGSLRLSCAPSGSIFDFYVMGWYRQAPGKERELVAAISSGGSTYYADSVKGRFTISRDNAKNTVYLQMNSLKPEDSAVYYCAAYPEYVSGAWYDYWGLGTQVTVSS | low polyreactivity
27 | QVQLVGSGGGLVQAGGSLRLSCAASGRIFSSSAMGWYRQAPGKERELVASIDWSDGSTYYADSVKGRFTISRDNAKNTVYLQRNSLKPEDTAVYYCAADFVPYLIYGYWGQGTQVTVSS | low polyreactivity
28 | QVQLVKSGGGLVQAGGSLRLICAASGSIFGYNTMGWYRQAPGKERELVATITYRGGSTYYADSVKGRFTISRDNAKNTVYLQMNSLKPEDTAVYYCARRVTRYPYTTWVSAGDYWGQGTQVTVSS | high polyreactivity
29 | QVQLVKSGGGLVQAGGSLRLSCAASGRIFVGYVMGWYRQAPGKERELVAAIDSGGRTNYADSVKGRFTISRDNAKNTVYLQMNSLKPEDTAVYYCNREAAHGSLRWTEMEYWGQGTQVTVSS | low polyreactivity
30 | QVQLVQSAVGLVQAGGSLRLICAASGITFLDNAMGWYRQAPGTERELVAAITSDGNPYYADCVKGRFTISRDNAKNTVYLQMNSLKPEDTAVYYCAVEVSDYYTYVSYDYCGQGTQVTVSS | low polyreactivity
31 | QVQLVQSGGGLVQAGGRLSLSCAASGYIFFTNAMGWYRQAPGKERELVAAISSAGRTKYADSVKGRFTISRDNAKNTVYIQMNSLIPEDTAVYYCNKSFYYRWGTGYDYWGQGTQVTVSS | low polyreactivity
32 | QVQLVQSGGGLVQAGGSLRLSCAASGGIFRTNPMGWYRQAPGQERALVATISRRGGSTYYADSVKGRFTISRDNAKNTVYFQMNSLKPEDTAVYYCAVEWYYTSNHIRFYRDNYWGQGTQVTVSS | high polyreactivity
33 | QVQLVQSGGGLVQAGGSLRLSCAASGRIFNYNAMGWYRQAPGKERELVAAINRSGVSTHYADSVKGRFTISRDNAKNTVYLQMNSLKPEDTAVYYCARTVYGARSYDYWGQGTQVTVSS | low polyreactivity
34 | QVQLVQSGGGLVQAGGSLRLSCAASGRIFPRYGMGWYRQAPGKERELCADITSSGSTYADSVKGRFTISRDNAKNTDYLQMHSLKPEDTAVYYCNALDRRLSYSWRYRQLYDYWGQGTQGTVSS | high polyreactivity
35 | QVQLVQSGGGLVQAGGSLRLSCAASGRNYSDNPMGWYRQAPGKERELVAANSSTGGTYYADSVKGRFTISRDNAKNTVYLQMNSLKPEDTAVYYCAARYRTLTKYYWGQGTQVSVSS | low polyreactivity
36 | QVQLVQSGGGLVQAGGSLRLSCAASGRPSLLMLWDGIDRRLGKKGSWLPLLTLVTPTTYADSVKGRFTISRDNAKNTVYLQMNSLKPEDTAVYYCNADFRPLDHYVNWYYYWGQGTQVTVSS | low polyreactivity
37 | QVQLVQSGGGLVQAGGSLRLSCAASGRTFGVYAMGWYRQAPGKERELVAAITWSGGSTYYADSVKGRFTISRDNAKNTVYLQMNSLKPEDTAVYYCAALTWLSGVKMGYWGQGTQVTVSS | high polyreactivity
38 | QVQLVQSGGGLVQAGGSLRLSCAASGSIFLYYVMGWYRQAPGQERELVAAITWDGGSTYYADSVKGRFTISRDNAKNTVYLQMNSLNPEDTAVYFCAARVASKYLVYRKRPSRYDYWGQGTQLTVSS | low polyreactivity
39 | QVQLVQSGGGLVQAGGSLRLSCAASGSTFPTNAMGSYRQAPGKERELVAAISSSGGRTYYADSVKGRFTISRDNAKKTDYLQRNSLKPEDTAVYYCAAVWWRAYAVRMYYWGQGTQVTVSS | high polyreactivity
40 | QVQLVQSGGGLVQAGGSLRLSCAASGSTFYYYGMRSYREAPGKEMELFASISWRGGSTYSADSVKGRYTISRDNAKNTVYLQMNSLKPEDTAVYYCAASRRPWYRAVTWNAGDYWGQGTQVTVSS | high polyreactivity
